B1: S. cerevisiae Abp1 (full length; SH3 domain 535-592 mutated) / Hua2 (parent)
chain 1: MALEPIDYTTHSREIDAEYLKIVRGSDPDTTWLIISPNAKKEYEPESTGSSFHDFLQLFDETKVQYGLARVSPPGSDVEKIIIIGWCPDSAPLKTRASFAANFAAVANNLFKGYHVQVTARDEDDLDENELLMKISNAAGARYSIQTSSKQQGKASTPPVKKSFTPSKSPAPVSKKEPVKTPSPAPAAKISSRVNDNNDDDDWNEPELKERDFDQAPLKPNQSSYKPIGKIDLQKVIAEEKAKEDPRLVQKPTAAGSKIDPSSDIANLKNESKLKRDSEFNSFLGTTKPPSMTESSLKNDDDKVIKGFRNEKSPAQLWAERKAKQNSGNAETKAEAPKPEVPEDEPEGEPDVKDLKSKFEGLAASEKEEEEMENKFAPPPKKSEPTIISPKPFSKPQEPVKAEEAEQPKTDYKKIGNPLPGMHIEADNEEEPEENDDDWDDDEDEAAQPPLPSRNVASGAPVQKEEPEQEEIAPSLPSRNSIPAPKQEEAPEQAPEEEIEEEAEEAAPQLPSRSSAAPPPPPRRATPEKKPKENPWATAEYDYDAAEDNELTFVENDKIINIEFVDDDWWLGELEKDGSKGLFPSNYVSLGN
chain 2: MQQTKFGKMYLDHDSVVEYSEDEIVEADRITLGYKKRLSMIENQMRHLLEDFSLDVQQIEPILADLQKYYDAFLQLLQKRNKSLQCKRSTHQPVPSPMNSQTSTNAKVNLSGKLMKFQLNSVQKFDEENILRILQNKIEFEHYFQIDKGKKQKVLLLAVYQCLNGPTRLHKVLNIEGIIHNNSIRTILGKQVSSSKWTVFLYDVKLVLLAHRQDVPNLETSKMIVRYGDLFPCALYFKDHTAY

Variants of: B1
Test: DHFR protein-fragment complementation in yeast (Abp1-DHFR F[1,2] x partner-DHFR F[3]), deep mutational scanning, second methotrexate selection vs reference
Details: with Hua2; S. cerevisiae, DHFR-PCA selection in liquid with methotrexate at 30 C, two 72 h selections (the score uses the second); reference = the pre-selection culture; not an affinity; scale: DMS score: mean over two replicates of log2(f_test/f_ref + 0.5)/ln 2, minus the synonymous-codon median

Variant	screen value
chain 1 N556P	-2.97
chain 1 N556I	-2.52
chain 1 N556W	-1.22
chain 1 N556V	-2.96
chain 1 E573D	-1.16
chain 1 E573L	-2.11
chain 1 E573G	-2.56
chain 1 E573R	-1.65
chain 1 E573W	-2.52
chain 1 E573K	-1.32
chain 1 E573A	-1.17
chain 1 L551E	-2.9
chain 1 L551F	-2.93
chain 1 L551V	-1.51
chain 1 L551P	-1.38
chain 1 L551Q	-2.06
chain 1 L551R	-2.52
chain 1 L551T	-2.85
chain 1 Y541G	-1.86
chain 1 Y541I	-2.42
chain 1 Y541T	-2.3
chain 1 D567Y	-1.92
chain 1 E547W	-2.89
chain 1 E547I	-2.45
chain 1 E547F	-1.69

Variant	screen value
chain 1 E547V	-2.1
chain 1 E547G	-2.81
chain 1 E547M	-1.68
chain 1 E547A	-2.3
chain 1 E547C	-2.2
chain 1 I560D	-2.15
chain 1 I560A	-1.35
chain 1 I560G	-2.38
chain 1 I560W	-2.4
chain 1 W536D	-1.97
chain 1 W536K	-1.76
chain 1 W536G	-2.23
chain 1 W536P	-2.87
chain 1 W536N	-1.23
chain 1 W536R	-1.3
chain 1 W536A	-1.3
chain 1 W536I	-1.58
chain 1 W536L	-1.66
chain 1 S589P	-2.38
chain 1 S589Y	-1.12
chain 1 E540F	-2.97
chain 1 E575R	-1.6
chain 1 E575N	-1.15
chain 1 E575G	-1.41
chain 1 E575P	-1.33

Variant	screen value
chain 1 E575F	-1.16
chain 1 E575T	-1.44
chain 1 L571G	-1.24
chain 1 L571P	-2.25
chain 1 K576F	-2.16
chain 1 K576W	-2.17
chain 1 K576Y	-1.6
chain 1 K576I	-1.18
chain 1 K576P	-2.88
chain 1 K576D	-1.75
chain 1 K576M	-1.51
chain 1 K576L	-1.83
chain 1 K576V	-1.06
chain 1 D566V	-2.75
chain 1 E555W	-1.84
chain 1 A537F	-2.93
chain 1 A537D	-2.14
chain 1 A537T	-1.87
chain 1 A537P	-2.58
chain 1 A537V	-2.01
chain 1 A537S	-2.6
chain 1 S585E	-2.07
chain 1 S585I	-1.59
chain 1 G578Y	-2.41
chain 1 G578L	-2.28

Variant	screen value
chain 1 G578V	-2.83
chain 1 G578T	-2.3
chain 1 G578D	-1.53
chain 1 G578F	-2.12
chain 1 G578C	-1.66
chain 1 G578E	-1.21
chain 1 A546P	-2.02
chain 1 D542V	-1.37
chain 1 D542Y	-1.41
chain 1 D542I	-2.41
chain 1 D542W	-1.61
chain 1 D542L	-1.84
chain 1 N586Y	-2.41
chain 1 N586F	-2.5
chain 1 N586W	-2.53
chain 1 L590Y	-1.64
chain 1 L590P	-1.72
chain 1 L590Q	-2.62
chain 1 L590E	-2.84
chain 1 L590T	-2.55
chain 1 L590R	-2.85
chain 1 L590S	-2.63
chain 1 L590K	-2.78
chain 1 L590W	-1.2
chain 1 L590H	-2.44

Variant	screen value
chain 1 L590A	-2.75
chain 1 L590C	-2.24
chain 1 F564I	-1.74
chain 1 F564W	-2.35
chain 1 F564V	-2.3
chain 1 F564L	-1.7
chain 1 F564N	-2.93
chain 1 F564T	-2.07
chain 1 F564C	-1.62
chain 1 F564G	-2.97
chain 1 F564S	-2.74
chain 1 F564D	-2.53
chain 1 F564A	-2.55
chain 1 N561Q	-1.98
chain 1 N561S	-2.28
chain 1 N561A	-2.29
chain 1 N561I	-1.97
chain 1 N561M	-2.43
chain 1 N561G	-1.4
chain 1 N561T	-1.97
chain 1 N561Y	-2.5
chain 1 N561C	-2.22
chain 1 N561R	-2.12
chain 1 N561E	-1.17
chain 1 V588I	-2.59

Variant	screen value
chain 1 V588G	-2.23
chain 1 V588T	-2.13
chain 1 V588A	-1.52
chain 1 V588L	-2.21
chain 1 V588D	-2.95
chain 1 V588E	-2.04
chain 1 V588M	-1.92
chain 1 V588W	-2.8
chain 1 V588F	-2.87
chain 1 W569G	-2.06
chain 1 W569E	-2.94
chain 1 W569R	-2.35
chain 1 W569V	-2.92
chain 1 W569L	-2.34
chain 1 W569C	-1.49
chain 1 S579P	-2.21
chain 1 S579G	-1.41
chain 1 S579A	-1.48
chain 1 S579D	-1.27
chain 1 S579I	-1.27
chain 1 S579Y	-2.71
chain 1 S579F	-2.55
chain 1 S579W	-2.9

Same assay, conditions: with Hua2; S. cerevisiae, DHFR-PCA selection in liquid with methotrexate at 30 C, two 72 h selections (the score uses the second); reference = the pre-selection culture; not an affinity; value at the no-binding floor (a bound); scale: DMS score: mean over two replicates of log2(f_test/f_ref + 0.5)/ln 2, minus the synonymous-codon median

Variant	screen value
chain 1 D567W	< -3.06
chain 1 D567L	< -3.06
chain 1 D567F	-2.99
chain 1 E547P	< -3.06
chain 1 E540P	-3
chain 1 D566P	< -3.06
chain 1 D566L	< -3.06
chain 1 D566I	< -3.06
chain 1 D566W	< -3.06
chain 1 A537N	< -3.06
chain 1 A537L	-3.02
chain 1 A537I	-3.01
chain 1 A537H	< -3.06
chain 1 A537R	-3.04
chain 1 A537W	< -3.06
chain 1 A537E	-3.04
chain 1 A537M	< -3.06
chain 1 A537Q	< -3.06
chain 1 A537Y	< -3.06

From paper PMC7954794, “Protein context shapes the specificity of SH3 domain-mediated interactions in vivo” (Nature Communications, 2021)
